US20260167714A1 (COHERUS BIOSCIENCES, published 2026)

How the values were obtained:
[1] = target: T1, human ILT4 expressed on cells (human, UniProt Q8N423 22-597); assay: flow based HLA-G blocking assay
T1 construct: whole, on cells; The same entry is used for endogenous ILT4 of human macrophages; also called CHO-S/ILT4 cells; ILT4-CHO cells

LILRA1 = target: T2, LILRA1 (human, UniProt O75019 17-461); assay: SPR, Biacore 8K cross-reactivity study
T2 construct: Bought protein; limits of the extracellular domain are marked by bold type not visible here; whole entry named; also called recombinant human LILRA1
T2 sequence (O75019 other isoform, or with tags, fused parts or gaps): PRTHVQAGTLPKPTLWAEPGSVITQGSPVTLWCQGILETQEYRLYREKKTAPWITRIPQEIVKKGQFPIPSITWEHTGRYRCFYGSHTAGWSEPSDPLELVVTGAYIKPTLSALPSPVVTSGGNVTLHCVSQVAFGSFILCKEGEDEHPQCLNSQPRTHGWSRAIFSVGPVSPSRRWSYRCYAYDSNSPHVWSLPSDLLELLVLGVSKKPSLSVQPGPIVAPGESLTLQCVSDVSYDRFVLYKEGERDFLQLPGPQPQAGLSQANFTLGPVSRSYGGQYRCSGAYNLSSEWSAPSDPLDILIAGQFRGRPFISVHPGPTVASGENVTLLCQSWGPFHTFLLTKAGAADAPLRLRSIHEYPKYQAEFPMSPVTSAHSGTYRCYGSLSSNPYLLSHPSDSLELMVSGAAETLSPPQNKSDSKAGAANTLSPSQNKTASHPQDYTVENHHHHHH
Description: (§1) SPR was used to determine the specificity of four humanized anti-ILT4 mAbs for binding to LILRB2 and to determine any cross-reactivity with nine other LILRA and LILRB family members. LILR proteins were purchased from Acro Biosystems or R&D Systems, with sequence provided below. The studies were performed with a Biacore 8K instrument using a CM4 sensor chip with a running buffer of HBS-P+, 100 μg/mL BSA. Anti-human Fc specific capture surfaces were prepared using standard amine coupling chemistry. MAb was captured to flow cell 2 with flow cell 1 serving as the reference flow cell. Each of the nine family members and LILRB2 were injected at 100 nM at 30 μL/min for 90 sec with 240 sec of dissociation. […] All sensorgrams were doubled-referenced during processing of the data.

[2] = target: T3, recombinant human ILT4 (LILRB2) (human, UniProt Q8N423 22-460); assay: KinExA, solution equilibrium, n-curve analysis
T3 construct: Bought protein (Acro Biosystems or R&D Systems); also called ILTR4
T3 sequence (Q8N423 other isoform, or with tags, fused parts or gaps limits assumed): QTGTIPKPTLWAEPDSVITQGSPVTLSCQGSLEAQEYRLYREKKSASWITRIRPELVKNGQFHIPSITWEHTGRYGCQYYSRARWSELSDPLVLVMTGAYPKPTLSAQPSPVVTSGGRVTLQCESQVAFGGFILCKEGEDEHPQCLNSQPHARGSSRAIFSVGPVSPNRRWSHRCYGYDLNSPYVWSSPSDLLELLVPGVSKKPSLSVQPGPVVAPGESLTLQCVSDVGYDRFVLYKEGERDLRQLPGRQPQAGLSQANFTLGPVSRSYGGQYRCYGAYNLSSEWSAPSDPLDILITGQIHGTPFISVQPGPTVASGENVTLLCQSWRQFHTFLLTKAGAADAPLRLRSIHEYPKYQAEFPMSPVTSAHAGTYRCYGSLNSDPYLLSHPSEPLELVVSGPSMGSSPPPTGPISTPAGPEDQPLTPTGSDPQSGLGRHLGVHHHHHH
Description: Kinetic Exclusion Assay (KinExA®) was performed to measure the equilibrium binding affinity and kinetics between human ILT4 and four humanized LALA-Fc modified antibodies in solution. For affinity analysis, the equilibrium dissociation constant, KD, was experimentally determined and reflects the strength of the binding interaction. The rate of association, kₒₙ, was also experimentally determined, while the rate of dissociation, koff, is calculated based on the following equation: koff=KD×kₒₙ
The binding affinity (KD), association (kₒₙ), and dissociation rate constants (koff) were measured for 4 different Humanized LALA IgG antibodies to ILT4 using KinExA. An n-curve analysis of at least two different curves, run at two different CBP concentrations, was used to determine the KD of the interactions The ILT4 was used as the concentration reference for all curves. All of the binding systems have low error and well defined 95% confidence intervals giving confidence to the measurements: […]

[3] = target: T3, recombinant human ILT4 (LILRB2); assay: SPR, high resolution kinetics, triplicate, LALA antibody
LILRA2 = target: T4, LILRA2 (human, UniProt Q8N149 24-449); assay: SPR, Biacore 8K, mAb captured on anti-human Fc, analyte injected
T4 construct: Bought protein; limits of the extracellular domain are marked by bold type not visible here; whole entry named; also called recombinant human LILRA2
T4 sequence (Q8N149 other isoform, or with tags, fused parts or gaps): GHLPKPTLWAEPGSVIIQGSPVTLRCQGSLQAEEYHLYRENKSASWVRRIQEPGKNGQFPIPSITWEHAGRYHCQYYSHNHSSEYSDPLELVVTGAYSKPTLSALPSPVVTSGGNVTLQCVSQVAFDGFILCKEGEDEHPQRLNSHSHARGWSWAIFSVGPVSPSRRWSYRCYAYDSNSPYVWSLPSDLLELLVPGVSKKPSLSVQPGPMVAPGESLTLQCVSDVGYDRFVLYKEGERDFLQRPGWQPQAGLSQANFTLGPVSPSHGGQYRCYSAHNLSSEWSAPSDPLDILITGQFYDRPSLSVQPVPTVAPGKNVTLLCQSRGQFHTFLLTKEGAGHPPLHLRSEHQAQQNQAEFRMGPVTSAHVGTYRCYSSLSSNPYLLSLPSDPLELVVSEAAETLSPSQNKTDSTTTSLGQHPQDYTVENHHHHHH
Description: as §1

LILRA4 = target: T5, LILRA4 (human, UniProt P59901 24-446); assay: as above
T5 construct: Bought protein; limits of the extracellular domain are marked by bold type not visible here; whole entry named; also called recombinant human LILRA4
T5 sequence (P59901 other isoform, or with tags, fused parts or gaps): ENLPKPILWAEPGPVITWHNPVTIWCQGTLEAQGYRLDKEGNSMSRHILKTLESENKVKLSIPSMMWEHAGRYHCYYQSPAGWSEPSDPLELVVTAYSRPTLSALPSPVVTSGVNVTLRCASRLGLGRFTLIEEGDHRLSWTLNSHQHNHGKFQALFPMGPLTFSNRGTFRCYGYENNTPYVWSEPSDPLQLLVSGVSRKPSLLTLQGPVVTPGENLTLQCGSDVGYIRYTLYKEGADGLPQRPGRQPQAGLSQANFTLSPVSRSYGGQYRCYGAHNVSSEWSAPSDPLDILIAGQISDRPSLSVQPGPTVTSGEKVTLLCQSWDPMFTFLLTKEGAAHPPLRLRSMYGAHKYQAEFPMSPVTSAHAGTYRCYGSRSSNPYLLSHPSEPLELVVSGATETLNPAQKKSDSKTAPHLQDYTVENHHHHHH
Description: as §1

LILRA5 = target: T6, LILRA5 (human, UniProt A6NI73 42-268); assay: as above
T6 construct: Bought protein; limits of the extracellular domain are marked by bold type not visible here; whole entry named; also called recombinant human LILRA5
T6 sequence (A6NI73 other isoform, or with tags, fused parts or gaps): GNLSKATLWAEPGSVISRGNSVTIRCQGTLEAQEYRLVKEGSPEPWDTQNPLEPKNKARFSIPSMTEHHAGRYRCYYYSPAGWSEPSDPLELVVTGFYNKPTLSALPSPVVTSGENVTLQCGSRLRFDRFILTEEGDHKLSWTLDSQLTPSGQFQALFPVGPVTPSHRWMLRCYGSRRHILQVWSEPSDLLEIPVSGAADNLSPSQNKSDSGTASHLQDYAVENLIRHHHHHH
Description: as §1

LILRA6 = target: T7, LILRA6 (human, UniProt Q6PI73 24-447); assay: as above
T7 construct: Bought protein; limits of the extracellular domain are marked by bold type not visible here; whole entry named; also called recombinant human LILRA6
T7 sequence (Q6PI73 other isoform, or with tags, fused parts or gaps): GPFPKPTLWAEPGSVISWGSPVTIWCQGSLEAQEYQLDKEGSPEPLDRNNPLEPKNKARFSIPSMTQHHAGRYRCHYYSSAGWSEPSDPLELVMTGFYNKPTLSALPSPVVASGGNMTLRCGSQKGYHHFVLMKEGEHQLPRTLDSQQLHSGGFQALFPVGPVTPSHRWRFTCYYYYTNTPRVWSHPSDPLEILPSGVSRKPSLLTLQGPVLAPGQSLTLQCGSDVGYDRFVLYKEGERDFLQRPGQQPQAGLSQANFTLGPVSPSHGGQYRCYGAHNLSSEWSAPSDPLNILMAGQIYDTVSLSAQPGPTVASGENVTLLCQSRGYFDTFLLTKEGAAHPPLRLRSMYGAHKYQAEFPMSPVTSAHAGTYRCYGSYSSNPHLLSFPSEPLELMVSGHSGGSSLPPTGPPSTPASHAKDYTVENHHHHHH
Description: as §1

LILRB3 = target: T8, LILRB3 (human, UniProt O75022 24-443); assay: as above
T8 construct: Bought protein; limits of the extracellular domain are marked by bold type not visible here; whole entry named; also called recombinant human LILRB3; ILT5
T8 sequence (O75022 other isoform, or with tags, fused parts or gaps): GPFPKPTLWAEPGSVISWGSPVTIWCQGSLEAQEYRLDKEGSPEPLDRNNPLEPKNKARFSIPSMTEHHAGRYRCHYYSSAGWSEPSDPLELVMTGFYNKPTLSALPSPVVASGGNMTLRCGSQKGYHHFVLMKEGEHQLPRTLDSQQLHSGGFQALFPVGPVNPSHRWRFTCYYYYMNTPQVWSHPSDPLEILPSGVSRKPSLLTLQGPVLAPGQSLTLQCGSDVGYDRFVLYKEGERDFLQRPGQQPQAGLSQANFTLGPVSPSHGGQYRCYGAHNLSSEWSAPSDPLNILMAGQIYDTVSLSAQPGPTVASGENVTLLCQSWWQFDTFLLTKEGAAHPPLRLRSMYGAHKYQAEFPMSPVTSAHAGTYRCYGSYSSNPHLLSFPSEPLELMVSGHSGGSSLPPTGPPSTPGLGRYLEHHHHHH
Description: as §1

LILRB4 = target: T9, LILRB4 (human, UniProt Q8NHJ6 22-259); assay: as above
T9 construct: Bought protein; limits of the extracellular domain are marked by bold type not visible here; whole entry named; also called recombinant human LILRB4; ILT3
T9 sequence (Q8NHJ6 other isoform, or with tags, fused parts or gaps): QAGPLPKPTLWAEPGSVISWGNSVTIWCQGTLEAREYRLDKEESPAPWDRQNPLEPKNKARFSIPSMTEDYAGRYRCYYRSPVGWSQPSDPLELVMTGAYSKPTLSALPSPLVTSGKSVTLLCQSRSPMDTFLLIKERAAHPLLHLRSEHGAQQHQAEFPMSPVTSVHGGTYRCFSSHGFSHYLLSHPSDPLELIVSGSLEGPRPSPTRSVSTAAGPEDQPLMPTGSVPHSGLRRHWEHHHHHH
Description: as §1

[4] = target: T3, recombinant human ILT4 (LILRB2); assay: SPR, Biacore T200, medium resolution; koff held at its limit of 4.27e-5 s^-1
Outline: (§2)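 Mouse, chimeric or humanized mAbs captured on anti-Fc surfaces (CM4 chip); ILT4 injected at 101 to 0.79 nM, 2-fold series, 90 s association, 1200 s dissociation. Run at 25° C in HBS-P+ pH 7.4 with 100 μg/ml BSA; double-referenced global 1:1 fit with mass-transport term, KD=koff/kon.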

[5] = target: T3, recombinant human ILT4 (LILRB2); assay: SPR, high resolution kinetics, triplicate, LALA antibody; 95% CI in parentheses
[6] = target: T3, recombinant human ILT4 (LILRB2); assay: SPR, Biacore T200, mAb captured on anti-Fc, ILT4 injected, medium resolution, 25 C
Outline: as §2

LILRA3 [7] = target: T10, LILRA3 (human, UniProt Q8N6C8 24-439); assay: SPR, Biacore 8K cross-reactivity study, single concentration 100 nM; lower end of the range 600-700 nM
T10 construct: Bought protein; limits of the part used are marked by bold type not visible here; whole entry named; also called recombinant human LILRA3
T10 sequence (Q8N6C8 24-439 A105V limits assumed): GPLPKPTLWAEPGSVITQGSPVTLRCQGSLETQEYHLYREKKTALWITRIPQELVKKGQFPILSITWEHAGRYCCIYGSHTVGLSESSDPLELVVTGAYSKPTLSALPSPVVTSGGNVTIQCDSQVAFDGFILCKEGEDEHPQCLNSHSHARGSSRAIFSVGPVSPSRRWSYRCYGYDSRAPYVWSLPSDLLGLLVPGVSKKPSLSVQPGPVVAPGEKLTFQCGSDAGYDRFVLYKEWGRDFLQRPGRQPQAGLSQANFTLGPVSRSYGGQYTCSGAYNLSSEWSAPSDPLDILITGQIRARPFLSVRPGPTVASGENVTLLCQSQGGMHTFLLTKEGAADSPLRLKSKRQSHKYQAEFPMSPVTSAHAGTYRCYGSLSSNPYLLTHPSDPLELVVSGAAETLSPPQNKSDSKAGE
Description: as §1

LILRA3 [8] = target: T10, LILRA3; assay: SPR, Biacore 8K cross-reactivity study, single concentration 100 nM; upper end of the range 600-700 nM
Description: as §1

LILRA3 [9] = target: T10, LILRA3; assay: SPR, Biacore 8K, mAb captured on anti-human Fc, LILRA3 at 100 nM; legend: + weak binding (~600-700 nM KD)
Description: as §1

[10] = target: T3, recombinant human ILT4 (LILRB2); assay: SPR, Biacore 8K, mAb captured on anti-human Fc, LILRB2 at 100 nM; legend: ++++ tight binding (<100 pM KD)
Description: as §1

T1 sequence (Q8N423 22-597): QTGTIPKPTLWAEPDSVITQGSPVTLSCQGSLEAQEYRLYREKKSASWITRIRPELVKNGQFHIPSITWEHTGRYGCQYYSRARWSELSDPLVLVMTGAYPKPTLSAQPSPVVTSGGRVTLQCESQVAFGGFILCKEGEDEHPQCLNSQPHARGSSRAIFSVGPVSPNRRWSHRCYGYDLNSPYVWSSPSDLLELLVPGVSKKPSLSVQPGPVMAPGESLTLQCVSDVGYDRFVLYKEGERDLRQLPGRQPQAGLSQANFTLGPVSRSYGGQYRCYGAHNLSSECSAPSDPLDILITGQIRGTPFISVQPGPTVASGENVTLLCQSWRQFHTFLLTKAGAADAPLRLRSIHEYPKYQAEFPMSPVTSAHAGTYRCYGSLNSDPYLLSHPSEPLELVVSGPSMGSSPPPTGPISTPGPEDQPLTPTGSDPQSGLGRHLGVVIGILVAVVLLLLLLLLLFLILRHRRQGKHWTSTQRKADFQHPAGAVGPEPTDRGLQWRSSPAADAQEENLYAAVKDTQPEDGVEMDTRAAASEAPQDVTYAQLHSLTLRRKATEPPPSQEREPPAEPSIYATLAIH

B1: Hz180-LALA (antibody, human IgG1, kappa, L234A L235A, V domains shown)
VH: QVQLVQSGAEVKKPGSSVKVSCKASGYSFIGYFMNWMRQAPGQGLEWIGRINPYNGDIFYNQKFKGRVTITVDKSTSTAYMELSSLRSEDTAVYYCARGITVAAGSFDVWGQGTTVTVSS
VL: DIVMTQSPDSLAVSLGERATINCRASESVDNYGNTFMHWYQQKPGQPPKLLIYRASNLESGIPDRFSGSGSGTDFTLTISSLQAEDVAVYYCQQSSDHPLTFGGGTKVEIKR
notes: Humanized L180S4, human IgG1 L234A/L235A, kappa; also called Humanized 180_04; Hz 180 04
For B1, the IC50 [1] was 0.051 µg/mL, the binding result (LILRA1) was “binds” and the Kd [2] was 0.000759 nM. The Kd [3] was 0.0016 nM, the koff [3] was 6.3e-06 s⁻¹ and the binding result (LILRA2) was “no binding (tested: 100 nM)”. B1: no binding (tested: 100 nM) (LILRA4); no binding (tested: 100 nM) (LILRA5); no binding (tested: 100 nM) (LILRA6). For the same binder, the binding result (LILRB3) was “no binding (tested: 100 nM)”, the binding result (LILRB4) was “no binding (tested: 100 nM)” and the Kd [4] was at most 0.053 nM. It also gave a koff [4] of at most 4.27e-05 s⁻¹, a kon [5] of 3.95e+06 M⁻¹ s⁻¹ and a kon [6] of 812000 M⁻¹ s⁻¹. It also gave a Kd (LILRA3 [7]) of 600 to 700 nM, a Kd (LILRA3 [8]) of 600 to 700 nM and a KD (LILRA3 [9]) of 600 to 700 nM. For the same binder, the KD [10] was under 0.1 nM.
